Test results published in patent US20180155407A1 (Sanofi, published 2018).
Numbered stars: 1 amine (or outer) side, 2 acyl side, 3 side chain; on linkers, the order of the positions; unused ones are H or OH. Square brackets hold non-standard residues; d marks the D form. Side chains are listed from the residue outwards. Ends that are not written are not given here. * marks the point of attachment. γGlu = O=C(O)[C@H](CCC(=O)[*:2])N[*:1]; Palmitoyl = CCCCCCCCCCCCCCCC(=O)*; Aib = CC(C)(N)C(=O)O

B1: SEQ ID NO: 7 (peptide)
peptide: H[Aib]QGTFTSDLSKLK([γGlu-γGlu-Palmitoyl])EKQRQ[Aib]EFIEWLKA[dA]GPPS[Aib]KPPPK-NH2
modifications: N-terminus assumed
SMILES: CCCCCCCCCCCCCCCC(=O)N[C@@H](CCC(=O)N[C@@H](CCC(=O)NCCCC[C@H](NC(=O)[C@H](CC(C)C)NC(=O)[C@H](CCCCN)NC(=O)[C@H](CO)NC(=O)[C@H](CC(C)C)NC(=O)[C@H](CC(=O)O)NC(=O)[C@H](CO)NC(=O)[C@@H](NC(=O)[C@H](Cc1ccccc1)NC(=O)[C@@H](NC(=O)CNC(=O)[C@H](CCC(N)=O)NC(=O)C(C)(C)NC(=O)[C@@H](N)Cc1c[nH]cn1)[C@@H](C)O)[C@@H](C)O)C(=O)N[C@@H](CCC(=O)O)C(=O)N[C@@H](CCCCN)C(=O)N[C@@H](CCC(N)=O)C(=O)N[C@@H](CCCNC(=N)N)C(=O)N[C@@H](CCC(N)=O)C(=O)NC(C)(C)C(=O)N[C@@H](CCC(=O)O)C(=O)N[C@@H](Cc1ccccc1)C(=O)N[C@H](C(=O)N[C@@H](CCC(=O)O)C(=O)N[C@@H](Cc1c[nH]c2ccccc12)C(=O)N[C@@H](CC(C)C)C(=O)N[C@@H](CCCCN)C(=O)N[C@@H](C)C(=O)N[C@H](C)C(=O)NCC(=O)N1CCC[C@H]1C(=O)N1CCC[C@H]1C(=O)N[C@@H](CO)C(=O)NC(C)(C)C(=O)N[C@@H](CCCCN)C(=O)N1CCC[C@H]1C(=O)N1CCC[C@H]1C(=O)N1CCC[C@H]1C(=O)N[C@@H](CCCCN)C(N)=O)[C@@H](C)CC)C(=O)O)C(=O)O

Legend:
Assay in all cases: cell-based or functional assay
[1] = target: human glucagon receptor (human) (UniProt P47871)
Chain of human glucagon receptor (human) (P47871 26-477): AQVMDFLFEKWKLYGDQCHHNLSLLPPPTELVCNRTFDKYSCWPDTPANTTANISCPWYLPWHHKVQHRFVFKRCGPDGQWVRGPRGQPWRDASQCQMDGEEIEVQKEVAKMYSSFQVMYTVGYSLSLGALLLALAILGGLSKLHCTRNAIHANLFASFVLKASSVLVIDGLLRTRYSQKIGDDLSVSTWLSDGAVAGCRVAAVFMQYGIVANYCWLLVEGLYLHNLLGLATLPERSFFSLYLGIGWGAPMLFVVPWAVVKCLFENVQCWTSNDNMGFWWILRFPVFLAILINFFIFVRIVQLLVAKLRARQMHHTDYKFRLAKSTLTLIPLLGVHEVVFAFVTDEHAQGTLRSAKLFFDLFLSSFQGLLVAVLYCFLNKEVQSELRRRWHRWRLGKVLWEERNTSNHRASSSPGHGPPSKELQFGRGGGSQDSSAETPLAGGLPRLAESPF

[2] = target: human GLP-1 receptor (human) (UniProt P43220)
Chain of human GLP-1 receptor (human) (P43220 24-463): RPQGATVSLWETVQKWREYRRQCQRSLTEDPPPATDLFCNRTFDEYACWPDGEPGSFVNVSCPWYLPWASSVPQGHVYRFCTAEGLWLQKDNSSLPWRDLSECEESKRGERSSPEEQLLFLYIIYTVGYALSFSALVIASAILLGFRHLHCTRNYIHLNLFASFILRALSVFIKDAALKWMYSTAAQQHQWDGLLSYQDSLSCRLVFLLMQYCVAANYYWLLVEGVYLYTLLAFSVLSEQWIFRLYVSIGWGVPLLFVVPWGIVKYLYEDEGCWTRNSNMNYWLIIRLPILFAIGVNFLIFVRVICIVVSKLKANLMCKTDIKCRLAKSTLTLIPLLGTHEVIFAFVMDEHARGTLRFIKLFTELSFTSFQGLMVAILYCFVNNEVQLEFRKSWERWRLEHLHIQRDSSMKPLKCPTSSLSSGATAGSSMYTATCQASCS

human GLP-1 receptor = human GLP-1 receptor (human, UniProt P43220 24-463)
human GIP receptor = target: T1, human GIP receptor (human, UniProt P48546 22-466)
T1 sequence (looked up): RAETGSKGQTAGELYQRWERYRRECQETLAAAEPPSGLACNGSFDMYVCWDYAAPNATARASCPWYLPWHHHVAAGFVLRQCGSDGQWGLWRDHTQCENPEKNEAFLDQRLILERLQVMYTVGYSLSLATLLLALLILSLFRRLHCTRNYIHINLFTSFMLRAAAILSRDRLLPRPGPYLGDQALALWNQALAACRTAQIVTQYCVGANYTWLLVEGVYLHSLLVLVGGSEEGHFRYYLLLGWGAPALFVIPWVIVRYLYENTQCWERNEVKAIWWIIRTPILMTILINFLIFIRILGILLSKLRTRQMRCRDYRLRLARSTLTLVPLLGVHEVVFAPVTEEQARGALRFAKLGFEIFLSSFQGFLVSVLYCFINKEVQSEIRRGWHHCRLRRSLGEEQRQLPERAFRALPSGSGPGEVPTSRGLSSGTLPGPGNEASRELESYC

human glucagon receptor = human glucagon receptor (human, UniProt P47871 26-477)
Chain of human glucagon receptor (P47871 26-477): as the sequence (P47871 26-477) above

Row | Molecule | EC50 hGlucagon R [pM] (cAMP formation) [1] | EC50 hGLP-1R [pM] (cAMP formation) [2] | EC50 hGLP-1R (cAMP formation) (human GLP-1 receptor) | EC50 hGIP R (cAMP formation) (human GIP receptor) | EC50 hGlucagon R (cAMP formation) (human glucagon receptor)
1 | exendin-4 (peptide) | > 1e+07 pM | 0.4 pM |  |  | 
2 | B1 |  |  | 4 pM | 14.2 pM | 21.8 pM
